Assay [1] has as its target human fibronectin from plasma (human). As to the kind of experiment: ELISA; data not shown; LigB proteins on immobilised fibronectin, its 70-kDa N-terminal fragment or fibrinogen.
The target of assay [2] is human fibrinogen (human) (UniProt P02671). The description is as above.
For assay [3], the target named is human fibronectin from plasma (human). As to the kind of experiment: ELISA; host protein (1 µg per well) immobilised in microtiter wells, blocked with 20 mg/mL BSA; recombinant LigB in 20 mg/mL BSA in PBS pH 7.2, 1 h at 37°C; bound LigB detected by its polyhistidine tag; apparent Kd from the LigB concentration at half-maximal binding. In general terms: An ELISA detects its analyte on a solid surface through an enzyme-linked reagent.

Assay [4] concerns the target human fibrinogen (human) (UniProt P02671). The assay is described as above.
Assay [5] has the same target. Described as above. This is another data set of the same source.
For assay [6] the target is unchanged.
The target in assay [7] is human fibronectin from plasma (human). Description: ELISA; host protein (1 µg per well) immobilised in microtiter wells, blocked with 20 mg/mL BSA; recombinant LigB in 20 mg/mL BSA in PBS pH 7.2, 1 h at 37°C; bound LigB detected by its polyhistidine tag; apparent Kd from the LigB concentration at half-maximal binding. This is another data set of the same source.
For assay [8], the target named is human fibronectin from fibroblasts (human). Described as above.
Assay [9] concerns the target human type III collagen (human) (UniProt P02461). Described as above.
The target in assay [10] is fibrinogen fragment D (human). As to the kind of experiment: bacterial cell adhesion ELISA; wells coated with 1 µg human fibrinogen or fragment D, blocked with 20 mg/mL BSA; 3×10^8 leptospires, 1 h at 30°C; adherent cells fixed with formaldehyde and detected with a rabbit antibody to L. biflexa; increase over wild-type L. biflexa.
fibrinogen fragment D (human), sequence (P02671 130-216, chain 1 of 3): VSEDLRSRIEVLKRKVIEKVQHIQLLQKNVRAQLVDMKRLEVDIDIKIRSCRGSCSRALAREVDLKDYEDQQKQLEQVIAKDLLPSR
fibrinogen fragment D (human), sequence (P02675 164-491, chain 2 of 3, further chain): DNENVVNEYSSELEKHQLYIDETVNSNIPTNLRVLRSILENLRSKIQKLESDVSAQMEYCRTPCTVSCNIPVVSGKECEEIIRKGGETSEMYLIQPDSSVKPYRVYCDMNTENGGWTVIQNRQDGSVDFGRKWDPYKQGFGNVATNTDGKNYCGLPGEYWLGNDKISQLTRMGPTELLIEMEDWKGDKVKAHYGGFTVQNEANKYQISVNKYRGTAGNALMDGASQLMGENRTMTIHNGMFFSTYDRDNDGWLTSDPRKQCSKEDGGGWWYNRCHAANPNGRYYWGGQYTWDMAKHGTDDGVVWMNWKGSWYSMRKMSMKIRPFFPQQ
fibrinogen fragment D (human), sequence (P02679 114-432, chain 3 of 3, further chain): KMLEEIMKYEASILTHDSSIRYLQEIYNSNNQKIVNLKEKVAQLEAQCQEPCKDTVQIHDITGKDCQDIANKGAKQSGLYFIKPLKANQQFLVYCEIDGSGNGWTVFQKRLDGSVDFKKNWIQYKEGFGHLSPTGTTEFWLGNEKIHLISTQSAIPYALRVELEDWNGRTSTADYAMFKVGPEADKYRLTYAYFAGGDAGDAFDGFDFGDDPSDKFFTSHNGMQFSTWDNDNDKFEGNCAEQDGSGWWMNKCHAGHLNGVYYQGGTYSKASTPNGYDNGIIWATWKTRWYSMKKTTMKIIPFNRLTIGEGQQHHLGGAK
In assay [11] the target is human fibrinogen (human) (UniProt P02671). Described as above.

Like-named read-outs stand apart in the source and are kept apart here.

The values below come from publication PMC3036719.

human fibrinogen (human), sequence (P02671 20-866, chain 1 of 3): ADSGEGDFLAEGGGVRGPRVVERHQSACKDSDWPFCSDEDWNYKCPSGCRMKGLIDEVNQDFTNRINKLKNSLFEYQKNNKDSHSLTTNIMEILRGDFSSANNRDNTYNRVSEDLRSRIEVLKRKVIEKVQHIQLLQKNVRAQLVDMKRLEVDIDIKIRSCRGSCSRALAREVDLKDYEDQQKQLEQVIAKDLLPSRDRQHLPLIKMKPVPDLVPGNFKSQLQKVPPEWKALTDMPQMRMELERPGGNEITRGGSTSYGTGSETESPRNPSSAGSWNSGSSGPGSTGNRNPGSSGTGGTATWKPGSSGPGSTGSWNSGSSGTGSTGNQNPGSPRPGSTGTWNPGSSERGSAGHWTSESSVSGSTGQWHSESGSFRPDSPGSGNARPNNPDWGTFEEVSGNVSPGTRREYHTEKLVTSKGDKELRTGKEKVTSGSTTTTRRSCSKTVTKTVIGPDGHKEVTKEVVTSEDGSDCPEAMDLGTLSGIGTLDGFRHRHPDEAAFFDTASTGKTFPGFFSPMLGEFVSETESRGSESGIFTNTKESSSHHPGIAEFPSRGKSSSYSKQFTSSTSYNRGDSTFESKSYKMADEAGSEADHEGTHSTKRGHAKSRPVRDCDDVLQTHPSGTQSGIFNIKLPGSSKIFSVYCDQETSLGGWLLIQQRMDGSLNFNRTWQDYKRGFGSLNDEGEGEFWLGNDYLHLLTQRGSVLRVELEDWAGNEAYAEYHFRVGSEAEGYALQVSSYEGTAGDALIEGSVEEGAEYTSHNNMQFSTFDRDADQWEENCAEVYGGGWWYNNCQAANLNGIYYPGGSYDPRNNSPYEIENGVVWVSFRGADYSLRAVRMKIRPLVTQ
human fibrinogen (human), sequence (P02675 31-491, chain 2 of 3, further chain): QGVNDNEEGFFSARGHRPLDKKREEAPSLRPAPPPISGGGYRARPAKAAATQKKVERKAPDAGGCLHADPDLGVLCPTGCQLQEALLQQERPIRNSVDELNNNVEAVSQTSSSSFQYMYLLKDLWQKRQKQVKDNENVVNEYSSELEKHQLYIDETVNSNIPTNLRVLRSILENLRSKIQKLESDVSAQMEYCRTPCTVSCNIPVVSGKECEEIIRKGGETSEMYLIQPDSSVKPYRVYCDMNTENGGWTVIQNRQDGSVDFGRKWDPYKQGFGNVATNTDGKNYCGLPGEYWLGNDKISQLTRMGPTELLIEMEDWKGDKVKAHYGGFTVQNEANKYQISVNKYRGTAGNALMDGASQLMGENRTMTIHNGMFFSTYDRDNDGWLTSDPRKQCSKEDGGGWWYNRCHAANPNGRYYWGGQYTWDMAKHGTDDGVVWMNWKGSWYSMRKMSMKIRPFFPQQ
human fibrinogen (human), sequence (P02679 27-453, chain 3 of 3, further chain): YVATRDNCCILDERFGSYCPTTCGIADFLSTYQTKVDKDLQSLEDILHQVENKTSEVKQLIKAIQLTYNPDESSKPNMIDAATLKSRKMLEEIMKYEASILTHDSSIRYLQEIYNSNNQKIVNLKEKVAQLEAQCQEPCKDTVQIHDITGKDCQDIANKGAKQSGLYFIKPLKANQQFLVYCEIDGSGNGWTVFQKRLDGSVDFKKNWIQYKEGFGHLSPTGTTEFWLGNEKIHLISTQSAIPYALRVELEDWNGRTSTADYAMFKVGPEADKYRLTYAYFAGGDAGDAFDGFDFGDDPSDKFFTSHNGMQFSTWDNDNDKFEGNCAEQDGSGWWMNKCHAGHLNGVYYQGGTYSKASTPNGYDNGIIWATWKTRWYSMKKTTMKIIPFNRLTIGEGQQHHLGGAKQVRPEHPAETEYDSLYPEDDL
human type III collagen (human), sequence (P02461 154-1221): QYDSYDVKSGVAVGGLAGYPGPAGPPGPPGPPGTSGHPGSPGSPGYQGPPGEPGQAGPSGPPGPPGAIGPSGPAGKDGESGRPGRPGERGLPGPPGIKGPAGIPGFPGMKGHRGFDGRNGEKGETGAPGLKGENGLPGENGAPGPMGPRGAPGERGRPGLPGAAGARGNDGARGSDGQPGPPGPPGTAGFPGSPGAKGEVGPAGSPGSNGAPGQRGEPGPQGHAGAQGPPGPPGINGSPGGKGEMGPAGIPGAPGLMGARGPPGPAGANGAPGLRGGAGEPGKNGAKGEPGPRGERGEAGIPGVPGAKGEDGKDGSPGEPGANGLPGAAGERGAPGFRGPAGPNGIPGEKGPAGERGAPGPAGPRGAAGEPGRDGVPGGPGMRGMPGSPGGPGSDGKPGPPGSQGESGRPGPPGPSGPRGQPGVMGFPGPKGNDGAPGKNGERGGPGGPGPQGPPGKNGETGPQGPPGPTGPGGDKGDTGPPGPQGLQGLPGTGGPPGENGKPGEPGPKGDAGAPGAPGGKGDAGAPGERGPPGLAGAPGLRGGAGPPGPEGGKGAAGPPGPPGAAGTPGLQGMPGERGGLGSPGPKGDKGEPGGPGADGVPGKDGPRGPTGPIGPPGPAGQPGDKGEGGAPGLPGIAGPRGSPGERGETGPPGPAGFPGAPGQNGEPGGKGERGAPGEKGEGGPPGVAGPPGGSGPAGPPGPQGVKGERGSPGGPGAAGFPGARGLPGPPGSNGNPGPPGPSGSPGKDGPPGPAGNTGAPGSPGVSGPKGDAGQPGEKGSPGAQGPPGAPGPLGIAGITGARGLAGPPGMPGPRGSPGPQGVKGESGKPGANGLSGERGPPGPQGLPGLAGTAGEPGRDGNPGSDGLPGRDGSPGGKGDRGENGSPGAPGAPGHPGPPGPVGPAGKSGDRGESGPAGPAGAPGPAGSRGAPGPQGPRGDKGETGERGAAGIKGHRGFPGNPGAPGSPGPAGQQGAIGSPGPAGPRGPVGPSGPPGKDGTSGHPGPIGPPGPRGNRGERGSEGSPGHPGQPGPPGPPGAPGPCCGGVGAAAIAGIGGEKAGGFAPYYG

Consider LigB9-11′ (domain or fragment), for which the percent decrease of fibronectin-binding activity relative to LigB9-11 in [1] was determined as 80%. For the same substance, the percent decrease of fibrinogen-binding activity relative to LigB9-11 with human fibrinogen (human) [2] is 50%.
For the substance LigB7′-12 (domain or fragment), the Kd was determined as 0.023 µM in assay [3] and 0.034 µM with human fibrinogen (human) [4].
In the case of “LigB9-11 with N-terminal H6 (cloned in pET-14b) (domain or fragment)”, the residual fibrinogen-binding activity relative to LigB9-11 with human fibrinogen (human) [2] is less than 10%.
Regarding LigB9-11 (domain or fragment), the Kd with human fibrinogen (human) [5] worked out at 0.028 µM; in assay [3], 0.031 µM; with human fibrinogen (human) [4], 0.027 µM; in [7], 0.032 µM; in assay [8], 0.025 µM; in [9], 0.03 µM. Moreover, the decrease of thrombin-catalysed fibrin formation from purified fibrinogen (3 µM fibrinogen preincubated with 5 µM LigB9-11; three determinations, 22 to 43%) with human fibrinogen (human) [6] worked out at 29%.
Substance “LigA from L. interrogans expressed on L. biflexa (ligA transformant) (natural protein)” registered a percent increase of adhesion over wild-type L. biflexa in assay [10] of 58%. Moreover, in the assay with human fibrinogen (human) [11], the percent increase of adhesion over wild-type L. biflexa was found to be 55% and the percent increase of adhesion over wild-type L. biflexa (representative experiment) was 56%.
As for LigB7′-10 (domain or fragment), the figures for the Kd (in assay [3]; with human fibrinogen (human) [4]) were 0.077 µM and 0.207 µM, respectively.
Taken in the same sequence, the figures for LigB7′-11 (domain or fragment) were 0.027 µM and 0.063 µM.
Taken in the same sequence, the figures for LigB9-10 (domain or fragment) were 0.252 µM and 0.169 µM.
In the assay with human fibrinogen (human) [11], “LigB from L. interrogans expressed on L. biflexa (ligB transformant) (natural protein)” showed a percent increase of adhesion over wild-type L. biflexa of 55% and a percent increase of adhesion over wild-type L. biflexa (representative experiment) of 37%.
LigB8-12 (domain or fragment): the Kd in assay [3] was determined as 0.026 µM.
Take LigB9-12 (domain or fragment): the Kd came to 0.022 µM in [3] and 0.037 µM in the assay with human fibrinogen (human) [4].
